Measurements taken from PMC10801921.

T1: ARR1 RD-DBD R294A (Arabidopsis thaliana, UniProt Q940D0 1-301, R294A)
T1 sequence: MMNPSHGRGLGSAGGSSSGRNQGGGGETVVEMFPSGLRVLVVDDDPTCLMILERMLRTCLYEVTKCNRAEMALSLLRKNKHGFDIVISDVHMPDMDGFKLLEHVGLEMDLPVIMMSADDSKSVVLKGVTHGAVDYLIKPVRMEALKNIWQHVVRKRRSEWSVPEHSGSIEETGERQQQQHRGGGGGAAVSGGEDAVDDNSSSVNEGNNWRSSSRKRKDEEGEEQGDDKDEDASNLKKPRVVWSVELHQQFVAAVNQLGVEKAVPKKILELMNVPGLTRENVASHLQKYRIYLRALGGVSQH

T2: ARR1 RD-DBD D89E (Arabidopsis thaliana, UniProt Q940D0 1-301, D89E)
T2 sequence: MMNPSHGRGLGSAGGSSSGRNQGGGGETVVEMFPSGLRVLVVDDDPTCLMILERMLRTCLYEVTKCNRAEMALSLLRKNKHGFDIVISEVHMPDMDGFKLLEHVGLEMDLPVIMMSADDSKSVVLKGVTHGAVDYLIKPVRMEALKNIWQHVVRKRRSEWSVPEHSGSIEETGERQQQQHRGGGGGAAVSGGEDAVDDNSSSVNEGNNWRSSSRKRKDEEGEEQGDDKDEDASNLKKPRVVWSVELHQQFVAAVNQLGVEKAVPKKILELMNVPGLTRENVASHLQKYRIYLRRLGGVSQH

T3: ARR1 DBD (crystal) (Arabidopsis thaliana, UniProt Q940D0 221-301)
T3 sequence: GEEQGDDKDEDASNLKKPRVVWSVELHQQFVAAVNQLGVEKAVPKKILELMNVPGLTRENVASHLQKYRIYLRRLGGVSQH


Legend:
ARR1 RD-DBD R294A = target: T1, ARR1 RD-DBD R294A; experiment: BLI
ARR1 RD-DBD D89E = target: T2, ARR1 RD-DBD D89E; experiment: BLI
ARR1 DBD (crystal) = target: T3, ARR1 DBD (crystal); experiment: X-ray crystallography

Binder	binding result (ARR1 RD-DBD R294A)	binding result (ARR1 RD-DBD D89E)	binding result (ARR1 DBD (crystal))
DNA-TCS 40 bp (ARR6-40) (dsDNA) DNA 1: GGATTAGATTAGATTAATCTGGATTAGATTAATCTAGATT DNA 2: AATCTAGATTAATCTAATCCAGATTAATCTAATCTAATCC	binds	binds	
DNA-TCS 25 bp (crystal) (dsDNA) DNA 1: AATCCAGATTAATCTAATCTAATCC DNA 2: GGATTAGATTAGATTAATCTGGATT			binds
